Assay results from the supplement of paper PMC11196671.

What was measured:
[1] = BHET released, HPLC; higher = more BHET released; extreme values may be limits of the assay; settings: 24 h
Procedure: (§1)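 Purified PET hydrolases, 2.5 ug enzyme on 3.5 mg amorphous PET film (aFilm) or crystalline PET powder (cryPow) in 0.5 mL of 50 mM buffer (NaCitrate pH 4.5/5.5, NaPhosphate 6.5/7.5, glycine 8.5/9.5) at 60 or 70 C with shaking for 24 h. Total aromatic product by UV-Vis (260/280 nm, blank-subtracted, normalised per mg enzyme) and individual TPA, MHET, BHET concentrations by UHPLC-DAD at 240 nm; duplicate reactions.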

[2] = MHET released, HPLC; higher = more MHET released; extreme values may be limits of the assay; settings: 24 h
Procedure: as §1

[3] = terephthalic acid (TPA) released, HPLC; higher = more TPA released; extreme values may be limits of the assay; settings: 24 h
Procedure: as §1

[4] = PET hydrolysis product formed (TPA+MHET+BHET, UV-Vis) per mg enzyme (mmol/mg enzyme); higher = more PET depolymerisation activity; extreme values may be limits of the assay; settings: 2 h
Procedure: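 Purified PET hydrolases (His-SUMO cleaved, E. coli C41(DE3) small-scale expression), 2.5 ug enzyme on 3.5 mg amorphous PET film (aFilm) or crystalline PET powder (cryPow) in 0.5 mL of 50 mM buffer (NaCitrate pH 4.5/5.5, NaPhosphate 6.5/7.5, glycine 8.5/9.5) at 60 or 70 C with shaking for 2 h. Soluble aromatic products (TPA+MHET+BHET) were quantified by UV-Vis at 260/280 nm, blank-subtracted against the no-enzyme control, and normalised per mg enzyme; duplicate reactions.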

SNPYQRGPNPTRSALTADGPFSVATYTVSRLSVSGFGGGVIYYPTGTSLTFGGIAMSPGYTADASSLAWLGRRLASHGFVVLVINTNSRFDGPDSRASQLSAALNYLRTSDPSAVRARLDANRLAVAGHSMGGGATLRIAEQNPSLKAAIPLTPWHTQKTFNTSVPVLIVGAEADTVAPVSQHAIPFYQNLPSTTPKVYVELCNASHIAPNSNNAAISVYTISWMKLWVDNDTRYRQFLCNVNDPALCDFRTNNRHCQ [LCC-ICCG DAQI]
Settings | BHET released, [1] [mM] | MHET released, [2] [mM] | PET hydrolysis product formed, [4] | terephthalic acid, [3] [mM]
PET substrate: aFilm, 60 °C, pH 4.5 | 0 | 0.0359 | 0 | 0.0488
PET substrate: aFilm, 60 °C, pH 5.5 | 0.0132 | 0.267 | 0.02083 | 0.279
PET substrate: aFilm, 60 °C, pH 6.5 | 0 | 0.562 | 0.0428 | 0.541
PET substrate: aFilm, 60 °C, pH 7.5 | 0.0548 | 3.69 | 0.0608 | 3.26
PET substrate: aFilm, 60 °C, pH 8.5 | 0.00252 | 0.3306 | 0.0525 | 0.517
PET substrate: aFilm, 60 °C, pH 9.5 | 0.0577 | 2.09 | 0.0903 | 1.99
PET substrate: aFilm, 70 °C, pH 4.5 | 0 | 0 | 0 | 0
PET substrate: aFilm, 70 °C, pH 5.5 | 0.0149 | 0.189 | 0.0394 | 0.1646
PET substrate: aFilm, 70 °C, pH 6.5 | 0.00777 | 0.371 | 0.0829 | 0.296
PET substrate: aFilm, 70 °C, pH 7.5 | 0.143 | 4.52 | 0.189 | 2.26
PET substrate: aFilm, 70 °C, pH 8.5 | 0 | 0.211 | 0.0593 | 0.205
PET substrate: aFilm, 70 °C, pH 9.5 | 0 | 1.54 | 0.241 | 1.45
PET substrate: cryPow, 60 °C, pH 4.5 | 0 | 0.033 | 0 | 0.0214
PET substrate: cryPow, 60 °C, pH 5.5 | 0.00665 | 0.189 | 0.0387 | 0.0856
PET substrate: cryPow, 60 °C, pH 6.5 | 0 | 0.254 | 0.0449 | 0.0997
PET substrate: cryPow, 60 °C, pH 7.5 | 0 | 0.437 | 0.0986 | 0.216
PET substrate: cryPow, 60 °C, pH 8.5 | 0 | 0.197 | 0.0373 | 0.103
PET substrate: cryPow, 60 °C, pH 9.5 | 0 | 0.155 | 0.0245 | 0.441
PET substrate: cryPow, 70 °C, pH 4.5 | 0 | 0 | 0 | 0
PET substrate: cryPow, 70 °C, pH 5.5 | 0 | 0.0777 | 0.0166 | 0.04158
PET substrate: cryPow, 70 °C, pH 6.5 | 0.00289 | 0.167 | 0.0286 | 0.0736
PET substrate: cryPow, 70 °C, pH 7.5 | 0 | 0.424 | 0.0606 | 0.401
PET substrate: cryPow, 70 °C, pH 8.5 | 0 | 0.164 | 0.0323 | 0.0916
PET substrate: cryPow, 70 °C, pH 9.5 | 0 | 0.0936 | 0.0462 | 0.659

SNPYQRGPNPTRSALTADGPFSVATYTVSRLSVSGFGGGVIYYPTGTSLTFGGIAMSPGYTADASSLAWLGRRLASHGFVVLVINTNSRFDGPDSRASQLSAALNYLRTSSPSAVRARLDANRLAVAGHSMGGGGTLRIAEQNPSLKAAVPLTPWHTDKTFNTSVPVLIVGAEADTVAPVSQHAIPFYQNLPSTTPKVYVELCNASHIAPNSNNAAISVYTISWMKLWVDNDTRYRQFLCNVNDPALCDFRTNNRHCQ [LCC-ICCG]
Settings | BHET released, [1] [mM] | MHET released, [2] [mM] | PET hydrolysis product formed, [4] | terephthalic acid, [3] [mM]
PET substrate: aFilm, 60 °C, pH 4.5 | 0 | 0.00708 | 0 | 0.0137
PET substrate: aFilm, 60 °C, pH 5.5 | 0.00902 | 0.284 | 0.0182 | 0.309
PET substrate: aFilm, 60 °C, pH 6.5 | 0.0136 | 0.773 | 0.0377 | 0.78
PET substrate: aFilm, 60 °C, pH 7.5 | 0.0155 | 3.92 | 0.0795 | 3.41
PET substrate: aFilm, 60 °C, pH 8.5 | 0 | 0.271 | 0.0461 | 0.472
PET substrate: aFilm, 60 °C, pH 9.5 | 0.039 | 2.19 | 0.0968 | 2.3
PET substrate: aFilm, 70 °C, pH 4.5 | 0 | 0 | 0 | 0
PET substrate: aFilm, 70 °C, pH 5.5 | 0.00749 | 0.246 | 0.0371 | 0.25
PET substrate: aFilm, 70 °C, pH 6.5 | 0 | 0.356 | 0.0873 | 0.362
PET substrate: aFilm, 70 °C, pH 7.5 | 0.0808 | 4.35 | 0.226 | 2.48
PET substrate: aFilm, 70 °C, pH 8.5 | 0 | 0.221 | 0.0682 | 0.287
PET substrate: aFilm, 70 °C, pH 9.5 | 0 | 1.87 | 0.252 | 1.72
PET substrate: cryPow, 60 °C, pH 4.5 | 0 | 0.0148 | 0 | 0.0129
PET substrate: cryPow, 60 °C, pH 5.5 | 0.00462 | 0.203 | 0.0406 | 0.0979
PET substrate: cryPow, 60 °C, pH 6.5 | 0 | 0.27 | 0.045 | 0.113
PET substrate: cryPow, 60 °C, pH 7.5 | 0 | 0.507 | 0.0768 | 0.308
PET substrate: cryPow, 60 °C, pH 8.5 | 0 | 0.198 | 0.0339 | 0.121
PET substrate: cryPow, 60 °C, pH 9.5 | 0 | 0.165 | 0.0379 | 0.516
PET substrate: cryPow, 70 °C, pH 4.5 | 0 | 0 | 0 | 0
PET substrate: cryPow, 70 °C, pH 5.5 | 0 | 0.1 | 0.0205 | 0.0559
PET substrate: cryPow, 70 °C, pH 6.5 | 0.0013 | 0.208 | 0.0349 | 0.0977
PET substrate: cryPow, 70 °C, pH 7.5 | 0 | 0.433 | 0.0598 | 0.409
PET substrate: cryPow, 70 °C, pH 8.5 | 0 | 0.173 | 0.0285 | 0.111
PET substrate: cryPow, 70 °C, pH 9.5 | 0 | 0.1 | 0.0357 | 0.682
